# Data: the nanobody polyreactivity screen of Harvey et al. (2022)
# Experiment: yeast display, Sf9 membrane polyspecificity reagent, FACS + sequencing; frameworks hold sequencing errors
# Method in brief: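 Polyreactivity labels are assigned by the sorting gate from which each nanobody was recovered. The gates were low and high (top ~1%), set on anti-HA fluorescence for expression and streptavidin fluorescence for reagent binding. Before sorting, galactose-induced (36–48 hours) yeast display cells were stained for 1 hour at 4 °C with 10% biotinylated, detergent-solubilized Sf9 membrane reagent.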
row,Sequence,polyreactivity (PSR sort gate)
1,QVQLVESGGGLVQAGGSLRLSCAASGRIFVINAMGWYRQAPGKEREFVAGITSSGNTNYADSVKGRFTISRDNAKNTVYLQMNSLKPEDTAVYYCNAQVYLTWLTYWLYYPPNDYWGQGTQVTVSS,low polyreactivity
2,QVQLVESGGGLVQAGGSLRLSCAASGRIFVINAMGWYRQAPGKERELVAAISQSGGSTYYADSVKGRFTISRDNAKNNVYLQMNSLKPEDTAVYYCNALSNVPYDYWGQGTQVTVSS,low polyreactivity
3,QVQLVESGGGLVQAGGSLRLSCAASGRIFVINAMGWYRQAPGKERELVAAISRRGANTYYADSVKGRFTISRDNAKNTVYLQMNSLKPEDTAVYYCNKVTVYRFRGDSWGQGTQVTVSS,high polyreactivity
4,QVQLVESGGGLVQAGGSLRLSCAASGRIFVINAMGWYRQAPGKERELVADITWSGGSTYADSVKGRFTISRDNAKNTVYLQMNSLKPEETAVYYCAKQRGGQPRSSTYYYWGQGTQVTVSS,high polyreactivity
5,QVQLVESGGGLVQAGGSLRLSCAASGRIFVKYAMGWYRQAPGKERELVARITRGGRTNYADSVKGRFTISRDNAKNTVYLQMNSLKPEDTAVYYCNAGWGMRLSWLGNYWGQGTQVTVSS,high polyreactivity
6,QVQLVESGGGLVQAGGSLRLSCAASGRIFVKYSMGWYRQAPGKERELVAAISKSGGSTYYADSVKGRFTISRDNAKNTVYLQMNSLKPEDTAVYYCATRSRDQYSVSYRLDYWGQGTQVTVSS,low polyreactivity
7,QVQLVESGGGLVQAGGSLRLSCAASGRIFVLYAMGWYRQAPGKERELVAAITSDGSSTYYADSVKGRFTISRDNAKNTVYLQMISLKPEDNAVYYCNKVQGWARYRSGKDMGYWGQGTQVTVSS,low polyreactivity
8,QVQLVESGGGLVQAGGSLRLSCAASGRIFVLYAMGWYRQAPGKERELVADITFDGGSTYYADSVKGRFTISRDNAKNTVYLQMNSLKPEDTAVSFCAARYRWSRKRYNDYDYWGQGTQVSVSS,high polyreactivity
9,QVQLVESGGGLVQAGGSLRLSCAASGRIFVPNAMGWYRPAPGKERELVAAISLRGGSTYYADSVKGRFTISRDNAKYTVYLQMNSLKPEDTAVYYCGWAYRYPHDYWGQGTQVTVSS,high polyreactivity
10,QVQLVESGGGLVQAGGSLRLSCAASGRIFVPNAMGWYRPPPGKERELVAAINWGGGSTYYADSVKGRFTISRDNAKNTVYLQMNSLKPEDTAVYYCAADHPYTIGVLPNQQFDYWGQGTQVTVSS,low polyreactivity
11,QVQLVESGGGLVQAGGSLRLSCAASGRIFVPNAMGWYRQAPGKERELVAAISSSGGSTYYADSVKGRFTISRDNAKNTVYLQMNSLKPEDTAVYDCNKVQSTANDYWGQGTQVTVSS,low polyreactivity
12,QVQLVESGGGLVQAGGSLRLSCAASGRIFVPNPMGWYRQAPGKDRELVAAITNGGRTKYADSVKGRFTISRDNAKNTVYLQMNSLKPEDTAVYYCAADLYRWFYYWGQGTQVTVSS,high polyreactivity
13,QVQLVESGGGLVQAGGSLRLSCAASGRIFVPNTMGWYRQAPGKERELVAAINTGGRTYYADSVKGRFTISRDNAKNTVYLQMNSLKPEDTAVYYCAVFSLKLGYIYDYWGQGTQVTVSS,high polyreactivity
14,QVQLVESGGGLVQAGGSLRLSCAASGRIFVPYVMGWYRQAPGKERELVASISDSDTSTYYADSVKGRFTISRDNATNTVYLQMNSLKPEDTAVYYCNVDYWGQGTQVTVSS,low polyreactivity
15,QVQLVESGGGLVQAGGSLRLSCAASGRIFVTNAMGWYRQAPGKERELVAAITRGGSTNYADSVKGRFTISRDNAKNTVYLQMNSLKPEDTAVYYCAAKRRYYGPWSRIGYDYWGHGTQVTVSS,low polyreactivity
16,QVQLVESGGGLVQAGGSLRLSCAASGRIFVTNDMGWYRQAPGKERELVAAISLSSGSTYYADSVKGRFTISRDNAKNTVYLQMNSLKPEDTAVYYCAADIFPFGYFLFRHGYWGQGTQVTVSS,low polyreactivity

row,Sequence,polyreactivity (PSR sort gate)
1,QVQLVESGGGLVQAGGSLRLSCAASGRIFVTYAMGLYRQAPGKERELVAVISWSGGSTYYADSVKGRFTISRDNAKNTVYLQMNSLKPEDTAVYYCARGLRKVRFDYWGQGTQVTVSS,low polyreactivity
2,QVQLVESGGGLVQAGGSLRLSCAASGRIFVTYAMGWYRQAPGKERELVAAITSRGGRTYDADSVKGRFTISRDNAKNTVYLQMNSLKPEDTAVYYCAAYPGPGARYYYWGQGTQVTVSS,high polyreactivity
3,QVQLVESGGGLVQAGGSLRLSCAASGRIFVTYAMGWYRQAPGKERELVAVISWSGGSTYYADSVKGRITISRDNAKNTVYLQINSLKPEDTAVYYCARGLRKVRFDYWGQGTQVTVSS,low polyreactivity
4,QVQLVESGGGLVQAGGSLRLSCAASGRIFVVNAMGWYRQAPGKERELVATITRSGGITYYADSVKGRFTISRDNAKNTVYLQMNSLKPEDTAVYYCNADVLFYTYYTRGRFDFDYWGQGTQVTVAS,low polyreactivity
5,QVQLVESGGGLVQAGGSLRLSCAASGRIFVVNDMGWYRQAPGKERELVAAINSGGRTNYADSVKGRFTISRDNAKNTVYLQMNSLKPEDTAVYYCNAKRTGPWFLHVPVYYWGQGTQVTVSS,low polyreactivity
6,QVQLVESGGGLVQAGGSLRLSCAASGRIFVWYAMGWYRQATGKERELVAAITRGGSTNYADSVKGRFTISRDNAKNTVYLQMNSLKPEDTAVYYCAARSPYRTRNDYWGQGTQVTVSS,low polyreactivity
7,QVQLVESGGGLVQAGGSLRLSCAASGRIFVYNAKGWNRQAPGKERQLVAAISYNGGGTYYADSVKGRFTISRDNAKNTVYLQMNSLKPEDTAVYYCAARYRSWTGKYEYWGQGTQVTVSS,high polyreactivity
8,QVQLVESGGGLVQAGGSLRLSCAASGRIFVYNAKGWYRQAAGKERELVAAISYTGGTTYYADSVKGRFTISRDNAKKTVYLQMKSLKPEDTAVFFCAALWWWNRQVRYEYWGQGTQVTVSS,low polyreactivity
9,QVQLVESGGGLVQAGGSLRLSCAASGRIFVYNAMGWSRQAPGKVRELVASITSSGGSTSYADSVKGRFTISRDNAKNTVYLQMNSLKPEDTAVYSCAADVQPDTRSTPEMDYWGQGTQVTVSS,low polyreactivity
10,QVQLVESGGGLVQAGGSLRLSCAASGRIFVYNAMGWYRQAPGKERELVAAINSGDSTYYADSVKGRFTISRDNAKNTVYLQMNSLKPEDTAVYYCAADIHYYPGYLAYDYWGQGTQVTVSS,low polyreactivity
11,QVQLVESGGGLVQAGGSLRLSCAASGRIFVYNVMGWSRQSPGKERELVAAISWGTGSTYADSVKGRFTISRDNAKNTVYLQMNSLKPEDTAVYYCAADWLSTKNDYWGQGTQVTVSS,low polyreactivity
12,QVQLVESGGGLVQAGGSLRLSCAASGRIFVYYAMGWYRQAPGKERELVAAITSRDDSTYYADSVKGRFTISRDNAKNTVYLQMNSLKPEDTAVYYCNVVPKSRDWQSYGSWGQGTQVTVSS,high polyreactivity
13,QVQLVESGGGLVQAGGSLRLSCAASGRIFVYYAMGWYRQAPGKERELVATISSGGSTYYADSVKGRFTISRDNAKNTVYLQMNSLKPEDTAVYYCAADNVIRYLAYYYKGDYWGQGTQVTVSS,low polyreactivity
14,QVQLVESGGGLVQAGGSLRLSCAASGRIFVYYAMGWYRQAPGNERELVAAITSGGTTYYADSVKGRFTISRDNAKNTVYLQMNSLKPEDTAVYYCAKVGRSDLGYDYWGQGTQVTVSS,low polyreactivity
15,QVQLVESGGGLVQAGGSLRLSCAASGRIFVYYTMGWYRPAPGKEREFVAAITRSGGRTYYADSVKGRFTISRDNAKNTVYLQMNSLKPEDTAVYYCNRDPTYLAYYIKYDSWGQGTQVTVSS,high polyreactivity
16,QVQLVESGGGLVQAGGSLRLSCAASGRIFWANAMGWYRQAPGKERELVAAISKSGDSTYYADSVKGRFTISRDTAKNTVYLEMSWLKPEDTAVYSCAADEYASRFSFKYDYWGQGTQVTVSS,high polyreactivity
